Molecular target: mouse LAG3 on Pmel-1 or Pmel-1xLy108 KO splenocytes (mouse) (UniProt Q61790)
Assay: cell-based or functional assay

Sequence of UniProt Q61790 (Q61790 24-521): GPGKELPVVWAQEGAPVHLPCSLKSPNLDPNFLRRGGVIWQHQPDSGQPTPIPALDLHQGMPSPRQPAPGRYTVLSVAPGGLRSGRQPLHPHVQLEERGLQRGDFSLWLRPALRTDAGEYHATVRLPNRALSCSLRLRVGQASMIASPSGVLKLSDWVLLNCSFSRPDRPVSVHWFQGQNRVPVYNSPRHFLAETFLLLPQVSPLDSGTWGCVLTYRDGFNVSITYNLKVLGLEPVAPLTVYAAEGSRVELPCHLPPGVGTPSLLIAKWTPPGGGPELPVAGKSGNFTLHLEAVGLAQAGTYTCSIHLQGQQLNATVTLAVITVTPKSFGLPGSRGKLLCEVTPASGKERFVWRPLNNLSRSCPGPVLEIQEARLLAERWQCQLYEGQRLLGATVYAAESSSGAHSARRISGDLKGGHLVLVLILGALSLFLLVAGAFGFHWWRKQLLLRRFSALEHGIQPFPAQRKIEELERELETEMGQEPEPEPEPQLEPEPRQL

“anti-LAG3 blocking antibody (BioXCell, clone: C9B7W, cat: BE0174)” showed an IFN-γ production (ELISA), Pmel-1×Ly108 KO cells with anti-LAG3 compared to Ly108-expressing cells of 3 fold and an IFN-γ secretion (ELISA) of Pmel-1 splenocytes activated with anti Lag3 (10 µg/ml), compared to no treatment of 1.5 fold.

— patent publication US20260151420A1
